The text below walks through data of the RNAGym collection of RNA variant scans (doi:10.1093/molbev/msab373).

B1: Azoarcus group I ribozyme (parent)
chain: GUGCCUUGCGCCGGGAAACCACGCAAGGGAUGGUGUCAAAUUCGGCGAAACCUAAGCGCCCGCCCGGGCGUAUGGCAACGCCGAGCCAAGCUUCGGCGCCUGCGCCGAUGAAGGUGUAGAGACUAGACGGCACCCACCUAAGGCAAACGCUAUGGUGAAGGCAUAGUCCAGGGAGUGGCGAAAGUCACACAAACCGG

The variants in the data set derive from B1. Kind of data set: reverse-splicing fitness (ratio to wild type); higher = more active; in vitro selection; Mg2+ level not given. In a few lines:
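An in vitro group I ribozyme library with randomized positions was T7-transcribed and gel-purified. In triplicate, 10 pmol RNA in EPPS pH 7.5 was reacted with 50 pmoles of a 30-nt RNA substrate for 1 h at 37 °C across several added MgCl2 levels (1–48 mM), then stopped with EDTA. Products were reverse transcribed from a substrate-complementary primer, PCR-amplified and sequenced (HiSeq 4000). Fitness is a variant's read proportion after selection over that before, normalised to wild type.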
On to C82A A145U U176A, for which the reverse-splicing fitness amounted to 0.386.
As for C82A A145C C150A C169A U176G, the reverse-splicing fitness is 0.00593.
The figure for C82U A111C A120G C169A U176G is 0.00418; for A111C A120C A145U C150U it is 0.415.
Take C82U A111G A120G A145G C150U C169A: the reverse-splicing fitness was determined as 0.0108.
The figure for C82A A120C A145G C150U C169G U176C is 0.0202; for C82U A111C A120G C150G U176A it is 0.00789; for C82U A111G A120U A145C U176G it is 0.00339.
As to C82U A111C A145G C150U U176G, the reverse-splicing fitness worked out at 0.0161.
The figure for A111G A120U A145G C169U is 0.126; for C82G A120G C150U C169U U176C it is 0.0203.
The figure for A111G A120G C150U C169A is 0.0914; for A120C A145U C169A U176G it is 0.00466; for C82U A111C A120C A145U C169A U176G it is 0.00532.
The figure for A111U A120G A145G C150U C169A U176A is 0.0224; for C82A A111U C150A C169G U176G it is 0.00794.
C82U A111G A120U A145U C150U C169G U176G: the reverse-splicing fitness is 0.00172.
The figure for A111C A120G C150U C169A U176G is 0.00513.
On to C82U A111U A120G A145G C150G C169U U176A, for which the reverse-splicing fitness was found to be 0.012.
The figure for C82A A120U A145G C150U U176G is 0.00635; for A111C C169G U176C it is 0.0355; for C82G A111U A120G A145C C150U C169U U176C it is 0.013.
As to C82A A111C A145C C150G, the reverse-splicing fitness was determined as 0.0226.
The figure for A111G A120G C150A C169G U176G is 0.00566; for C82G A111U A120U C150G C169G U176G it is 0.003.
The figure for A111U A145G C150A C169U is 0.0213.
On to C82U A111C A145U C150A C169G U176A, for which the reverse-splicing fitness is 0.0138.
The figure for C82G A120G C150A C169G U176A is 0.0215.
For C82A A111G A120C A145G C169A, the reverse-splicing fitness worked out at 0.0112.
The figure for A111C A120U A145C C169G U176G is 0.0018; for C82U A111C A120C C150G U176C it is 0.00787.
The figure for C82U A111U A120G A145C C150A U176G is 0.00379.
The figure for C82U A111C A120G A145G C150G U176A is 0.00693.
In the case of C82U A111U A120G A145G C150A C169U U176G, the reverse-splicing fitness was found to be 0.00536.
The figure for A111G A120U A145C C150G U176G is 0.0047; for C82U A111G A120U C150A C169G U176A it is 0.0073.
As to C82G A120C C150A C169G, the reverse-splicing fitness was determined as 0.00837.
For the variant C82A A145U C150A C169U U176C, the reverse-splicing fitness turned out to be 0.013.
The figure for A111U A120C A145C C150A C169U U176G is 0.00524.
The figure for C82G A111U A120U A145G C150G C169A U176A is 0.0114.
As for C82U A111C C150A U176C, the reverse-splicing fitness is 0.0276.
Consider C82G A120G A145U C150G C169A U176A, for which the reverse-splicing fitness was determined as 0.0112.
The figure for C82G A111C A120G A145C C150U C169G is 0.00885.
The figure for C82G A111C A120G is 0.0185; for C82A A111G A120U A145C C150G C169A U176G it is 0.00179; for C82G A111U A120U A145C C169G U176G it is 0.00158.
The figure for A120G A145C C169U U176C is 0.19; for C82A A120G A145U C169U U176A it is 0.02; for A111G A120G A145G C150G C169A it is 0.0213.
With C82U A111C A120C C150G C169U U176G, the reverse-splicing fitness came to 0.00565.
In the case of A120U A145G C150A C169A U176G, the reverse-splicing fitness is 0.00241.
Consider A145G C150A, for which the reverse-splicing fitness worked out at 0.582.
The figure for C82G A120U C150G C169G is 0.0053; for A111C A120C A145C C150G U176G it is 0.00444; for C82A A111C A120U A145U C150G C169G U176C it is 0.00299.
The figure for C82G A111G A120U A145C C169G U176C is 0.00181; for C82U A111G A120U A145C C169U U176A it is 0.00232; for C82G A111U A145C C150G C169G U176G it is 0.00602.
The figure for C82G A111G A120U A145G C150G C169A U176A is 0.0115; for C82A A120C A145C C150A C169G U176A it is 0.032; for C82A A111U A120C U176A it is 0.0152.
For C82A A111G A120G C150U C169G U176G, the reverse-splicing fitness was found to be 0.0061.
Consider C82U A120C U176C, for which the reverse-splicing fitness was determined as 0.0725.
The figure for A111U A120U A145G C150G C169A U176G is 0.00452; for C82U A111C A120C C150G it is 0.00785; for C82A A111C A120G A145U C150G C169U U176A it is 0.00693.
For the variant C82A A111U A145G C169U U176G, the reverse-splicing fitness is 0.00628.
The figure for C82U A111C A120G A145C C169G U176G is 0.00397; for C82A A111C A145U C150A C169U U176G it is 0.00853; for C82U A111C A120G A145G C169G U176G it is 0.00408.
The figure for C82U A111G A120G A145U C150U C169A is 0.00925; for C82G A111U A120G A145U C150A U176G it is 0.00661; for C82G A111C A120U C169G U176G it is 0.00213.
Turning to C82A A111C A120U A145G C150G C169G U176G, the reverse-splicing fitness stood at 0.00456.
In the case of A111G C150A C169U U176G, the reverse-splicing fitness was 0.00628.
For C82A A120G C150A C169A U176C, the reverse-splicing fitness worked out at 0.0216.
The figure for A111G A145G C150A is 0.517; for C82U A111C A120C A145C C150A C169A it is 0.00737.
The figure for C82U A111U A120G A145U C150G is 0.00635.
For C82G A111U A145U C150U C169U, the reverse-splicing fitness was 0.0113.
As for A111G C150G U176C, the reverse-splicing fitness was found to be 0.166.
The figure for A111G A120C A145C C169A U176A is 0.0086.
The figure for C82U A120G A145U C169G is 0.0232; for C82U A111U A120C A145U C150G C169U U176C it is 0.0122.
